No end group written: not given here.
Key:
Assay in all cases: pull-down from MDA-MB-231 cell lysate with CT20p-biotin and streptavidin-agarose beads, excised gel band, mass spectrometry
[1] = target: Cellular tumor antigen p53 (human) (UniProt P04637)
[2] = target: Coatomer subunit beta (human) (UniProt P35606)
[3] = target: Coatomer subunit gamma-1 (human) (UniProt Q9Y678)
[4] = target: Hsp90 co-chaperone Cdc37 (human) (UniProt Q16543)
Huntingtin (human) = Huntingtin (human) (UniProt P42858)
Reticulocalbin-2 (human) = Reticulocalbin-2 (human) (UniProt Q14257)
Chain of UniProt Q14257 (Q14257 23-317 limits assumed): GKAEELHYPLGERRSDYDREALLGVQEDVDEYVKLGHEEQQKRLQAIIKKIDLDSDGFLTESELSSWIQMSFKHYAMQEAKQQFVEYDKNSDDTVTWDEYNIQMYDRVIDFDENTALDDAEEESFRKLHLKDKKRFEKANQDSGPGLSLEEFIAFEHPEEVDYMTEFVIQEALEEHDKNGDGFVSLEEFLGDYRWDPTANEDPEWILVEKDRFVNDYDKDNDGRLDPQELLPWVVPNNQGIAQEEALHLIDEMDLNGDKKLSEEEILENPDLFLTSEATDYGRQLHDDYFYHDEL

[5] = target: Signal transducer and activator of transcription 1-alpha/beta (human) (UniProt P42224)
[6] = target: Signal transducer and activator of transcription 3 (human) (UniProt P40763)
[7] = target: T-complex protein 1 subunit alpha (human) (UniProt P17987)
[8] = target: T-complex protein 1 subunit delta (human) (UniProt P50991)
[9] = target: T-complex protein 1 subunit epsilon (human) (UniProt P48643)
Chain of UniProt P48643 (P48643 2-541 limits assumed, one chain of several): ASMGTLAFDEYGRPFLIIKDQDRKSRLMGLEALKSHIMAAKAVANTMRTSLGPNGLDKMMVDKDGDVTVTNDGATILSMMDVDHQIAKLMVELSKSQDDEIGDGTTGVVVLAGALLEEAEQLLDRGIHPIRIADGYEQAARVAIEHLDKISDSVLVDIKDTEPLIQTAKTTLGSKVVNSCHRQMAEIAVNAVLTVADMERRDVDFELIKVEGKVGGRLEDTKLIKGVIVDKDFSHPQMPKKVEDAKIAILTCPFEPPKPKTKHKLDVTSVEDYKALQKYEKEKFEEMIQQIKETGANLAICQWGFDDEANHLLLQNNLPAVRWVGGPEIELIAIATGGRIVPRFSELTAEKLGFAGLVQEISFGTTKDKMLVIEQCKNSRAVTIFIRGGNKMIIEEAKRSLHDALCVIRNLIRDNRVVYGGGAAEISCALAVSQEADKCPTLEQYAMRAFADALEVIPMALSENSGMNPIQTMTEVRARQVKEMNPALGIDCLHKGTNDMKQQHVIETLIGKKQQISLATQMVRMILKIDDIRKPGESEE

[10] = target: T-complex protein 1 subunit eta (human) (UniProt Q99832)
[11] = target: T-complex protein 1 subunit gamma (human) (UniProt P49368)
[12] = target: T-complex protein 1 subunit zeta (human) (UniProt P40227)

Chain of UniProt P42858 (P42858 whole entry): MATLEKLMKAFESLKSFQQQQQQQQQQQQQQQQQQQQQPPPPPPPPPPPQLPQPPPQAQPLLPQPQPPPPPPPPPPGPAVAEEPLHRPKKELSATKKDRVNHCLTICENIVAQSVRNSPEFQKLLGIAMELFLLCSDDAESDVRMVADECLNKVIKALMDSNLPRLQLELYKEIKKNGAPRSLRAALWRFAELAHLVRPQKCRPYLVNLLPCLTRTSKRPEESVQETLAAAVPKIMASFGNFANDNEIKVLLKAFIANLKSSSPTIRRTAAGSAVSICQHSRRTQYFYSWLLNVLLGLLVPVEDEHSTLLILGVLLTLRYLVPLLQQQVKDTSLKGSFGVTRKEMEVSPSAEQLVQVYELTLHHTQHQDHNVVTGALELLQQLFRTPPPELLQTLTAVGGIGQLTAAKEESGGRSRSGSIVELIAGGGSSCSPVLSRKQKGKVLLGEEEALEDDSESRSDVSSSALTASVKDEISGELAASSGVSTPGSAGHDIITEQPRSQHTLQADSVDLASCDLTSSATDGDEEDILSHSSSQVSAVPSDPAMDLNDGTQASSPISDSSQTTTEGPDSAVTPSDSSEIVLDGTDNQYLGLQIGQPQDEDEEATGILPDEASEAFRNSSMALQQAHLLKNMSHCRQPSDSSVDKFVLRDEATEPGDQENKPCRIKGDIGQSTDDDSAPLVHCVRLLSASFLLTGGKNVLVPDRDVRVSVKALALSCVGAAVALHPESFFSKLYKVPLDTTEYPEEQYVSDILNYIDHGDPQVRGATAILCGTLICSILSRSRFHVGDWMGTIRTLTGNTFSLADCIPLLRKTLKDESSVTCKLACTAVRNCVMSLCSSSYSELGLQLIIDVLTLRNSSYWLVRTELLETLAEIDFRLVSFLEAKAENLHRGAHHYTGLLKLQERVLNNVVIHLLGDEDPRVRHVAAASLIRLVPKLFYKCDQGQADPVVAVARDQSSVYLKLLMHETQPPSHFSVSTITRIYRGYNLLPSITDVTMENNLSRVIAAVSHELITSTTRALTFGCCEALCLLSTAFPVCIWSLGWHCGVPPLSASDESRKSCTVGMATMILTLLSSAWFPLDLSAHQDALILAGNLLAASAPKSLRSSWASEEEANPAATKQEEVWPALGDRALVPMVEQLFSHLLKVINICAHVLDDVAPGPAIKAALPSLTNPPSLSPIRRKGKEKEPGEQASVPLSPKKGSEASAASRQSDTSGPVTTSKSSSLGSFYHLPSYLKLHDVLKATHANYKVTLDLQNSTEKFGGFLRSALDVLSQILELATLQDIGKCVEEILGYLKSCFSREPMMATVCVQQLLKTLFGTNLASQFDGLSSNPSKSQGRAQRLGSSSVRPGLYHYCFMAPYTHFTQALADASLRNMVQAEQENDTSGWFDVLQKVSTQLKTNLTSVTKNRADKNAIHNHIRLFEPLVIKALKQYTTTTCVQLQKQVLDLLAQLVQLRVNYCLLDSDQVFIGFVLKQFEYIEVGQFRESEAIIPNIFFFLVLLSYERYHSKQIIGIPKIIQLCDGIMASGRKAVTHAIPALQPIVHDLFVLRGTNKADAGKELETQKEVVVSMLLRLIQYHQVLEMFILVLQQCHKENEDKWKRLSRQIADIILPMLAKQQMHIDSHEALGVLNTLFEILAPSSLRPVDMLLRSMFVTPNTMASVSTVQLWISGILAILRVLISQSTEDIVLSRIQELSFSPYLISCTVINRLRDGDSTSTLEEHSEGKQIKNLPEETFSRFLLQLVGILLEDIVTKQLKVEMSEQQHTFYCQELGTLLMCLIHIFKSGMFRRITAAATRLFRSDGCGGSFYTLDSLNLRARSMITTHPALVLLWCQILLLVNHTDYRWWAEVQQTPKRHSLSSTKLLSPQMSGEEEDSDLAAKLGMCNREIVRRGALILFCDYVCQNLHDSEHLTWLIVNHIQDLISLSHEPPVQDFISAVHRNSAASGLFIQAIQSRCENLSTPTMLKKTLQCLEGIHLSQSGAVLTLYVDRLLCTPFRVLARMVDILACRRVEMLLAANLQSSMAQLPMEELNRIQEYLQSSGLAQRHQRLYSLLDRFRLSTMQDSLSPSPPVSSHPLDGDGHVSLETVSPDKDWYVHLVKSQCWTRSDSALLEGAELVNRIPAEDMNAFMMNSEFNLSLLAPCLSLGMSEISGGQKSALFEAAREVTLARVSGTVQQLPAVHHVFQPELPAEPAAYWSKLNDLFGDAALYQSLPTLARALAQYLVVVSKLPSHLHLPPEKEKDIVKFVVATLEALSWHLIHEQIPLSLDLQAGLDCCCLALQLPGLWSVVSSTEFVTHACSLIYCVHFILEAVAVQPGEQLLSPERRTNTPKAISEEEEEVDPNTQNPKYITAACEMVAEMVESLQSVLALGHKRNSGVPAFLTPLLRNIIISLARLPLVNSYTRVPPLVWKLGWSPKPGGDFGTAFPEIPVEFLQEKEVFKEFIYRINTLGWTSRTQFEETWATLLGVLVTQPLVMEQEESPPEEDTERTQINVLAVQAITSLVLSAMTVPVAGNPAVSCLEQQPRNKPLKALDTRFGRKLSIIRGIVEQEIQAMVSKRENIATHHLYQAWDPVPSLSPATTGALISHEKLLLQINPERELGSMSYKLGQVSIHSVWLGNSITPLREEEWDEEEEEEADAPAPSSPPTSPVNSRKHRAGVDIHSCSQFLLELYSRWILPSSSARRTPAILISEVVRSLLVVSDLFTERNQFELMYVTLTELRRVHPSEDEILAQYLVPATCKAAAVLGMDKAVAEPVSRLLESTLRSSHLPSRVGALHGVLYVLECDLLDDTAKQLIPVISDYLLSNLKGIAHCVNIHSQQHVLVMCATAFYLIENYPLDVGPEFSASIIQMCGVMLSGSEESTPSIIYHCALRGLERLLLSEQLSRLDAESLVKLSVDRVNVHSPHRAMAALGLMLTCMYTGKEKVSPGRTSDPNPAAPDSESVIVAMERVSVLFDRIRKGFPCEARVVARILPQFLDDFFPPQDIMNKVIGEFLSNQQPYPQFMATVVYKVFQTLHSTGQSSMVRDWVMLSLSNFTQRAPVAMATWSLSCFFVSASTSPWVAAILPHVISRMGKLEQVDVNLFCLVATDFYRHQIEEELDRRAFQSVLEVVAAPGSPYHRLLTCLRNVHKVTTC
Chain of UniProt Q16543 (Q16543 whole entry): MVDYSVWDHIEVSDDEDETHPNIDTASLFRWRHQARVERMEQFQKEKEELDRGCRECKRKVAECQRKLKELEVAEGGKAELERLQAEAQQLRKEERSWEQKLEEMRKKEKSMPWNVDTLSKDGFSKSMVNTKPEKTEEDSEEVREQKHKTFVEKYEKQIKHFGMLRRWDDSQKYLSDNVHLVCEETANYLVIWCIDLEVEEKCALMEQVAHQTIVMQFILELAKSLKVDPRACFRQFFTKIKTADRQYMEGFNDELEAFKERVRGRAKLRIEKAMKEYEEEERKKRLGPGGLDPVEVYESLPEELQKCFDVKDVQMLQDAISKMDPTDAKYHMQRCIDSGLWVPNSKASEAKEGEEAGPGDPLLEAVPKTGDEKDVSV
Chain of UniProt P04637 (P04637 whole entry): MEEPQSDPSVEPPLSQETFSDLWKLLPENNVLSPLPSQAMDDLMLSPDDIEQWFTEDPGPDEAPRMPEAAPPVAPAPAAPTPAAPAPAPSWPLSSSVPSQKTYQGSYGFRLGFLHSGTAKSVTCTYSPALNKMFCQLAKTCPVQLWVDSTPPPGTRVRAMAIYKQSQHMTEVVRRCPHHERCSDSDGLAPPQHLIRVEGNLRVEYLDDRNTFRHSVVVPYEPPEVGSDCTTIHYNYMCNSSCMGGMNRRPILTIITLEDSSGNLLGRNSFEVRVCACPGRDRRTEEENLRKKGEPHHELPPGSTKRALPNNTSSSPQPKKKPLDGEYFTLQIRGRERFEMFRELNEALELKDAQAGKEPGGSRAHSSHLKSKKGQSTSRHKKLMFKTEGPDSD

- No. of unique peptides [1]: 1 peptides
- No. of unique peptides [2]: 6 peptides
- No. of unique peptides [3]: 6 peptides
- No. of unique peptides [4]: 2 peptides
- No. of unique peptides (Huntingtin (human)): 1 peptides
- No. of unique peptides (Reticulocalbin-2 (human)): 10 peptides
- No. of unique peptides [5]: 7 peptides
- No. of unique peptides [6]: 2 peptides
- No. of unique peptides [7]: 2 peptides
- No. of unique peptides [8]: 4 peptides
- No. of unique peptides [9]: 2 peptides
- No. of unique peptides [10]: 3 peptides
- No. of unique peptides [11]: 3 peptides
- No. of unique peptides [12]: 2 peptides
Binder: VTIFVAGVLTASLTIWKKMG (also: biotin tag, site not given here) [biotin-tagged CT20p]
